Key:
Assay in all cases: SPR
[1] = target: mouse HMCN1 fragment G2F-EGF1–5 (Strep-tagged) (mouse) (UniProt D3YXG0)
[2] = target: mouse HMCN1 fragment G2F-EGF1–3 (mouse) (UniProt D3YXG0)
[3] = target: mouse HMCN1 fragment TSR6-G2F-EGF1–2 (mouse) (UniProt D3YXG0)
[4] = target: mouse HMCN1 fragment G2F-EGF1–4 (mouse) (UniProt D3YXG0)
[5] = target: mouse HMCN1 fragment G2F-EGF1–2 (mouse) (UniProt D3YXG0)
[6] = target: mouse HMCN1 fragment G2F (mouse) (UniProt D3YXG0)
laminin-511 = laminin-511 (UniProt O15230 36-3695; P07942 22-1786; P11047 34-1609)
[7] = target: laminin-γ1 short arm (mouse) (UniProt P02468)
[8] = target: mouse HMCN1 fragment EGF1–5 (mouse) (UniProt D3YXG0)
[9] = target: mouse HMCN1 fragment G2F-EGF1–5 (Strep-tagged) (mouse, UniProt D3YXG0 22-5634)

Chain of laminin-γ1 short arm (mouse) (P02468 34-1607): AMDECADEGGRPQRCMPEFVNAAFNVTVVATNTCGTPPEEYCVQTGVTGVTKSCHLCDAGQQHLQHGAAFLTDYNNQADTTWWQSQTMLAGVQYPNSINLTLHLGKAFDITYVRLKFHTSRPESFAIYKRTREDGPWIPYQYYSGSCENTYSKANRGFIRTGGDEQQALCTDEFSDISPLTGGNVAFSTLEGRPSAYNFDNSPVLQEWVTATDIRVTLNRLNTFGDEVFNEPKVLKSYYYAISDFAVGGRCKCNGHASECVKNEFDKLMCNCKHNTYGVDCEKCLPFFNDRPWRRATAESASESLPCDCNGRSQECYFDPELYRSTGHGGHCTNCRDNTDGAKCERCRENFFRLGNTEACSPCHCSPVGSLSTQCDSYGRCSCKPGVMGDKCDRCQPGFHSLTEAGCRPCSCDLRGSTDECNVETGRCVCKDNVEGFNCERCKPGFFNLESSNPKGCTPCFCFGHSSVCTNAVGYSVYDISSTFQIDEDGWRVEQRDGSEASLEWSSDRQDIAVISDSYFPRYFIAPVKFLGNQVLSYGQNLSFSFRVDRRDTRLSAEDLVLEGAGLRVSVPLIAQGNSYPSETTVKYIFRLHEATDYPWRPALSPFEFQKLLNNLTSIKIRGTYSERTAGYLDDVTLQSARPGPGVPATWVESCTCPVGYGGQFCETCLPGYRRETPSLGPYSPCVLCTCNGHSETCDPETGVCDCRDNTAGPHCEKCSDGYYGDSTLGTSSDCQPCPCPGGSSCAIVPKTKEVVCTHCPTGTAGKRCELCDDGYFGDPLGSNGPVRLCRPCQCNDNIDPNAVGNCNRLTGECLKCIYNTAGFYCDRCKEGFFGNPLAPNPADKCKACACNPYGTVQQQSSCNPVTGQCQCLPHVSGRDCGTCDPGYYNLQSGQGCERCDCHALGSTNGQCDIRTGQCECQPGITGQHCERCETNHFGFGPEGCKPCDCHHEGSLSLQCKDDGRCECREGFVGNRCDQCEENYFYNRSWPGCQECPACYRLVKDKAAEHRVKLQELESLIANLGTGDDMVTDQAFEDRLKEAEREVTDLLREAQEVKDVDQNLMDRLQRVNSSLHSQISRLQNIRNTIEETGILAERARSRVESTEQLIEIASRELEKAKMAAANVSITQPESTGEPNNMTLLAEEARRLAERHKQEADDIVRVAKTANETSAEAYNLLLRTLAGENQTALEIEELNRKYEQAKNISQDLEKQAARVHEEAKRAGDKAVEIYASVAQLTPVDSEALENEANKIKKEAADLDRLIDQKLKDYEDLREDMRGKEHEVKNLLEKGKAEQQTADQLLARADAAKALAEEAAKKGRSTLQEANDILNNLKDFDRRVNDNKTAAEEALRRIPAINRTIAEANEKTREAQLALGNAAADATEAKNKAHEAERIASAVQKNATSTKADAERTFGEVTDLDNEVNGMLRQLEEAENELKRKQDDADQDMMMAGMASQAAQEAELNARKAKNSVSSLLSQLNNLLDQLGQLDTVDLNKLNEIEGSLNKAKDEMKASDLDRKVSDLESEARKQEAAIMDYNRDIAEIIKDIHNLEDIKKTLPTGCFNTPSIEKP

mouse NID1 TY-G3 (TG3) domain (from UniProt P10493 29-1245) (domain or fragment)
Kd [1]: 585 nM

mouse NID2 TY-G3 (TG3) domain, Strep-tagged (from UniProt O88322 31-1403) (domain or fragment)
Kd [2]: 170 nM
Kd [3]: 176 nM
Kd [4]: 180 nM
Kd [5]: 185 nM
Kd [6]: > 3000 nM
Kd [1]: 30 nM

B1: mouse nidogen-2 (NID2), full-length, Strep-tagged (natural protein, UniProt O88322 31-1403, looked up)
chain: LRPDELFPYGESWGDQLLPEGDDESSAAVKLAIPLRFYDAQFSSLYVGTNGIISTQDFPRETQYVDDDFPTDFPAIAPFLADIDTSHSRGRILYREDTSGAVLSLAARYVRTGFPLSGSSFTPTHAFLATWEHVGAYEEVSRGAAPSGELNTFQAVLASDESDTYALFLYPANGLQFFGTRPKESYNVQLQLPARVGFCRGEADDLKREALYFSLTNTEQSVKNLYQLSNLGIPGVWAFHIGSRFALDNVRPATVGGDPSTARSSALEHPFSHAAALESYTEDSFHYYDENEEDVEYPPVEPGEAPEGHSRIDVSFNSKADPGLVDVGTSSPGSDRASPWPYPAPGNWPSYRETESASLDPQTKQGRPVGEGEVLDFRDPAELLDQMGTRAPAPPEADAALLTPVNEDLGGRNTQSYPEAGPVPSEPDVPVPPLEGEVLPHYPESGHVPPLRGGKYVIGLEDHVGSNDQVFTYNGANLETCEHSHGRCSQHAFCTDYTTGFCCHCQSRFYGNGKHCLPEGAPHRVNGKVSGRLRVGHIPVHFTDVDLHAYIVGNDGRAYTAISHVPQPAAQALLPVLPIGGLFGWLFALEKPGSENGFSLTGATFVHDVEVTFHPGEERVRITQTAEGLDPENYLSIKTNIEGQVPFIPANFTAHITPYKEFYHYRDSVVTSSSSRSFSLTSGSINQTWSYHIDQNITYQACRHAPRHLAIPATQQLTVDRAFALYSEDEGVLRFAVTNQIGPVEVDSAPVGVNPCYDGSHTCDTTARCHPGTGVDYTCECTPGFQGDGRSCVDVNECATGFHRCGPNSVCVNLVGSYRCECRSGYEFADDQHTCILIAPPPNPCLDGSHTCAPEGQARCIHHGGSSFSCACLPGFIGTGHQCSDVDECAENRCHEAAICYNTPGSFSCRCQPGYRGDGFHCTSDTVPEDSISGLKPCEYQQRYAQTQHAYPGSRIHIPQCDDQGNFVPLQCHGSTGFCWCVDRNGHEVPGTQTPPGSTPPHCGPPPEPTQRPRTVCERWRESLLEHYGGTPRDDQYVPQCDDLGHFIPLQCHGKSDFCWCVDKDGRELQGTRSQPGTRPACIPTVAPPVVRPTPRPDVTPPSVGTFLLYAQGQQIGHLPLNGSRLQKDAARTLLSLHGSIVVGIDYDCRERMVYWTDVAGRTISRASLEAGAEPETIITSGLISPEGLAIDHFRRTMYWTDSGLDKIERAELDGSERKVLFHTDLVNPRAITVDPIRGNLYWTDWNREAPKIETSSLDGENRRILINKDIGLPNGLTFDPFSKLLCWADAGTKKLECTLPDGTGRRVIQNHLNYPFSIVSYADHFYHTDWRRDGVISVNKDSGQFTDEFLPEQRSHLYGITAVYPYCPTGRK
Kd (laminin-511): 5 nM
koff (laminin-511): 0.00081 s⁻¹
Kd [7]: 6 nM
koff [7]: 0.00073 s⁻¹
kon [7]: 120000 M⁻¹ s⁻¹
Kd [2]: 210 nM
Kd [3]: 160 nM
Kd [4]: 193 nM
Kd [8]: 500 nM
Kd [5]: 200 nM
Kd [6]: > 3000 nM
Kd [1]: 20 nM
koff [1]: 0.00837 s⁻¹

B2: hybrid fragment: two TY domains of NID2 with the G3 domain of NID1 (N2T-N1G3) (domain or fragment)
chain: LKPCEYQQRYAQTQHAYPGSRIHIPQCDDQGNFVPLQCHGSTGFCWCVDRNGHEVPGTQTPPGSTPPHCGPPPEPTQRPRTVCERWRESLLEHYGGTPRDDQYVPQCDDLGHFIPLQCHGKSDFCWCVDKDGRELQGTRSQPGTRPACLSTVAPPIHQGPVVPTAVIPLPPGTHLLFAQTGKIERLPLERNTMKKTEAKAFLHIPAKVIIGLAFDCVDKVVYWTDISEPSIGRASLHGGEPTTIIRQDLGSPEGIALDHLGRTIFWTDSQLDRIEVAKMDGTQRRVLFDTGLVNPRGIVTDPVRGNLYWTDWNRDNPKIETSHMDGTNRRILAQDNLGLPNGLTFDAFSSQLCWVDAGTHRAECLNPAQPGRRKVLEGLQYPFAVTSYGKNLYYTDWKTNSVIAMDLAISKEMDTFHPHKQTRLYGITIALSQCPQGHNYCSVNNGGCTHLCLPTPGSRTCRCPDNTLGVDCIERK
Kd [9]: 170 nM

B3: mouse nidogen-1 (NID1), full-length (natural protein, UniProt P10493 29-1245, looked up)
chain: LNRQELFPFGPGQGDLELEAGDDVVSPSLELIGELSFYDRTDITSVYVTTNGIIAMSEPPATEYHPGTFPPSFGSVAPFLADLDTTDGLGNVYYREDLSPFIIQMAAEYVQRGFPEVSFQPTSVVVVTWESVAPYGGPSSSPAEEGKRNTFQAVLASSNSSSYAIFLYPEDGLQFFTTFSKKDESQVPAVVGFSKGLVGFLWKSNGAYNIFANDRESIENLAKSSNAGHQGVWVFEIGSPATAKGVVSADVNLDLDDDGADYEDEDYDLVTSHLGLEDVATPSPSHSPRRGYPDPHNVPRILSPGYEATERPRGVPTERTRSFQLPAERFPQHHPQVIDVDEVEETGVVFSYNTGSQQTCANNRHQCSVHAECRDYATGFCCRCVANYTGNGRQCVAEGSPQRVNGKVKGRIFVGSSQVPVVFENTDLHSYVVMNHGRSYTAISTIPETVGYSLLPLAPIGGIIGWMFAVEQDGFKNGFSITGGEFTRQAEVTFLGHPGKLVLKQQFSGIDEHGHLTISTELEGRVPQIPYGASVHIEPYTELYHYSSSVITSSSTREYTVMEPDQDGAAPSHTHIYQWRQTITFQECAHDDARPALPSTQQLSVDSVFVLYNKEERILRYALSNSIGPVRDGSPDALQNPCYIGTHGCDSNAACRPGPGTQFTCECSIGFRGDGQTCYDIDECSEQPSRCGNHAVCNNLPGTFRCECVEGYHFSDRGTCVAAEDQRPINYCETGLHNCDIPQRAQCIYMGGSSYTCSCLPGFSGDGRACRDVDECQHSRCHPDAFCYNTPGSFTCQCKPGYQGDGFRCMPGEVSKTRCQLEREHILGAAGGADAQRPTLQGMFVPQCDEYGHYVPTQCHHSTGYCWCVDRDGRELEGSRTPPGMRPPCLSTVAPPIHQGPVVPTAVIPLPPGTHLLFAQTGKIERLPLERNTMKKTEAKAFLHIPAKVIIGLAFDCVDKVVYWTDISEPSIGRASLHGGEPTTIIRQDLGSPEGIALDHLGRTIFWTDSQLDRIEVAKMDGTQRRVLFDTGLVNPRGIVTDPVRGNLYWTDWNRDNPKIETSHMDGTNRRILAQDNLGLPNGLTFDAFSSQLCWVDAGTHRAECLNPAQPGRRKVLEGLQYPFAVTSYGKNLYYTDWKTNSVIAMDLAISKEMDTFHPHKQTRLYGITIALSQCPQGHNYCSVNNGGCTHLCLPTPGSRTCRCPDNTLGVDCIERK
Kd (laminin-511): 2.4 nM
koff (laminin-511): 0.0021 s⁻¹
Kd [1]: 560 nM

B4: hybrid fragment: single TY domain of NID1 with the G3 domain of Nid2 (N1T-N2G3) (domain or fragment)
chain: KTRCQLEREHILGAAGGADAQRPTLQGMFVPQCDEYGHYVPTQCHHSTGYCWCVDRDGRELEGSRTPPGMRPPCIPTVAPPVVRPTPRPDVTPPSVGTFLLYAQGQQIGHLPLNGSRLQKDAARTLLSLHGSIVVGIDYDCRERMVYWTDVAGRTISRASLEAGAEPETIITSGLISPEGLAIDHFRRTMYWTDSGLDKIERAELDGSERKVLFHTDLVNPRAITVDPIRGNLYWTDWNREAPKIETSSLDGENRRILINKDIGLPNGLTFDPFSKLLCWADAGTKKLECTLPDGTGRRVIQNHLNYPFSIVSYADHFYHTDWRRDGVISVNKDSGQFTDEFLPEQRSHLYGITAVYPYCPTGRK
Kd [9]: 110 nM

— paper PMC10015821 (Matrix biology : journal of the International Society for …, 2022)
